Experimental findings from US20250250357A1 (NANJING ZAIMING PHARMACEUTICAL, published 2025) are described below.

Residue numbers refer to the chain shown, from its start.

Sequences and labels used below:
T1: monkey MSLN on HEK293T-monkey MSLN recombinant cells (monkey)
T1 construct: Full-length precursor as transfected; processing on the cell is not described; also called HEK293-monkey MSLN
T1 chain: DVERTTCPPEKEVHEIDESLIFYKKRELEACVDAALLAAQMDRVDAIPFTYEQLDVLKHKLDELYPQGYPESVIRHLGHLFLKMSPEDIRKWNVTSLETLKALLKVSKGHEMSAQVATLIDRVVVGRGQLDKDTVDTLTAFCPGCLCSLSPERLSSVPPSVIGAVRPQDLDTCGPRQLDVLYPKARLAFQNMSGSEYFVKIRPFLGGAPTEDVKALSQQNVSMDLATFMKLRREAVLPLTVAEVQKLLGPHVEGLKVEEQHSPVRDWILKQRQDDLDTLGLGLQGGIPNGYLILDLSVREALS

B1: F2.39.3-H8 (scFv, not shown: small tags and cut ends)
scFv: EVQLVQSGAEVKKPGASVKVSCKASGYTFTNYWMHWVRQAPGQGLEWMGNINPSSGDSYYNERFMSRVTMTVDKSTSTAYMELSSLRSEDTAVYYCARSGGLWLAFWGQGTLVTVSSGGGGSGGGGSGGGGSDIVMTQTPLSLSVTPGQPASISCKSSQTLLNSVSQNNYLAWYQQKPGQSPTLLVYFASTRESGVPDRFSGSGSGTDFTLKISRVEAEDVGVYYCQQHYRTPYTFGGGTKVEIK
notes: also called S009-F2.39.3 humanized antibody VH2 + VL4
B2: F2.39.3-H2 (scFv, not shown: small tags and cut ends)
scFv: EVQLVQSGAEVKKPGASVKVSCKASGYTFTNYWMHWVRQAPGQGLEWMGNINPSSGDSYYNERFMSRVTMTVDKSTSTVYMELSSLRSEDTAVYYCARSGGLWLAFWGQGTLVTVSSGGGGSGGGGSGGGGSDIVMTQSPDSLAVSLGERATINCKSSQTLLNSVSQNNYLAWYQQKPGQSPTLLIYFASTRESGVPDRFSGSGSGTDFTLTISSLQAEDVAVYYCQQHYRTPYTFGGGTKVEIK
notes: also called S009-F2.39.3 humanized antibody VH1 + VL2
B3: F2.39.3-H9 (scFv, not shown: small tags and cut ends)
scFv: B2 scFv with V79A, Q109P, T183K
notes: also called S009-F2.39.3 humanized antibody VH3 + VL1
B4: F2.23.12-H5 (scFv, not shown: small tags and cut ends)
scFv: EVQLVQSGAEVKKPGASVKVSCKASGYTFTNYWMHWVRQAPGQGLEWMGNINPSNGGPYYNERFRSRVTMTVDKSTSTAYMELSSLRSEDTAVYYCARPYYGSSYGYFDYWGQGTTVTVSSGGGGSGGGGSGGGGSDIQMTQSPSSLSASVGDRVTITCKASQDINKYIAWYQQKPGKAPKLLIHYTSELQPGVPSRFSGSGSGTDFTFTISSLQPEDIATYYCLQYANPLRTFGGGTKVEIK
notes: also called S009-F2.23.12 humanized antibody VH2 + VL1
B5: F2.23.12-H8 (scFv, not shown: small tags and cut ends)
scFv: B4 scFv with Q174H, T205R, F207Y
notes: also called S009-F2.23.12 humanized antibody VH2 + VL4
B6: F2.23.12-H4 (scFv, not shown: small tags and cut ends)
scFv: B4 scFv with A79V, Q174H, T205R, F207Y
notes: also called S009-F2.23.12 humanized antibody VH1 + VL4
B7: F2.23.12-H16 (scFv, not shown: small tags and cut ends)
scFv: B4 scFv with N55Q, Q174H, T205R, F207Y
notes: also called S009-F2.23.12 humanized antibody VH4 + VL4
B8: F2.23.12-H1 (scFv, not shown: small tags and cut ends)
scFv: B4 scFv with A79V
notes: also called S009-F2.23.12 humanized antibody VH1 + VL1
B9: F2.23.12-H13 (scFv, not shown: small tags and cut ends)
scFv: B4 scFv with N55Q
notes: also called S009-F2.23.12 humanized antibody VH4 + VL1
B10: S009-F7.69.8 (antibody, human IgG1, kappa, V domains shown)
VH: EVHLQQSGPELVKPGASVRIPCKASGYTFTDYNMDWVKQSHGKSLEWIGDINPDNGGTIYTQKFKGKATLTVDKSSSTAYMELRSLTSEDTAVYYCARRLHYYGSSGLDYWGQGTTLTVSS
VL: DIQMTQSPASLSAYVGETVTITCRASGNIHNYLAWYQQKQGKSPQLLVYNAKTLADGVPSRFSGSGSGTQYSLKINSLQPEDFGSYYCQHFWSTVWTFGGGTKLEIKR
notes: Human-murine chimeric antibody, human IgG1 heavy and kappa light constant regions
B11: S009-F7.21.16 (antibody, human IgG1, kappa, V domains shown)
VH: QVQLQQPGTELVKPGASVKLSCKASGYTFTTFWMHWVKQRPGQGLEWIGGVNPTNGGTNYNEKFRTKATLTVDKSSTTADMQLSSLTSEDSAVYYCAPHYISSRPGFAYWGQGTLVTVSG
VL: DIVMTQSQKFMSTSGGDRVSVTCKASQNVGTNVAWYQQKPGQSPKALIYSASYRYSGVPDRFTGSGSGTDFILTISNVQSEDLAEYFCQQYNSYPLTFGGGTKLEIKR
notes: as for B10

In the first assay the target is T2, human MSLN on OVCAR3 tumor cells (human, UniProt Q13421 296-598).
T2 construct: whole, on cells; also called human MSLN protein
T2 sequence (Q13421 other isoform, or with tags, fused parts or gaps): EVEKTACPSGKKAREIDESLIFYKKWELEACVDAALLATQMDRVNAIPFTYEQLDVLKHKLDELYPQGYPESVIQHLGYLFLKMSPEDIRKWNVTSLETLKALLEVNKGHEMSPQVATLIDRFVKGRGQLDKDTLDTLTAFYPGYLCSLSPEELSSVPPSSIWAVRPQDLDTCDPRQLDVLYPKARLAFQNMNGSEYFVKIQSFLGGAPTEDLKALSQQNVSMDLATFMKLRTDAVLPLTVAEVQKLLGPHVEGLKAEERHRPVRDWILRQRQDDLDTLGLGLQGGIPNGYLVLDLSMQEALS
Nature of the assay: FACS, OVCAR3 cells. (In flow cytometry, cells or beads pass a laser one at a time.)
A word on the EC50: it is the midpoint of the concentration-response curve. As for B1, a half-maximal response (EC50) required 18.6 nM and the Maximum_MFI turned out to be 4120 MFI.

As for B2, the EC50 was determined as 54 nM and the Maximum_MFI came to 4220 MFI.

Turning to B3, the midpoint of the response, the EC50, lay at 17.2 nM and the Maximum_MFI is 4300 MFI.

In turn, B4 gave an EC50 of 11.3 nM and a Maximum_MFI of 3340 MFI.

Consider B5, for which the EC50 is 14.5 nM and the Maximum_MFI was 3040 MFI.

Molecule B6 yielded a concentration for a half-maximal effect (EC50) of 9.9 nM and a Maximum_MFI of 3630 MFI.

The molecule B7 displayed a concentration giving a half-maximal response (EC50) of 80.4 nM and a Maximum_MFI of 2920 MFI.

B8: it took 9.56 nM to reach a half-maximal effect (EC50) and the Maximum_MFI worked out at 3250 MFI.

B9 registered an EC50 of 38.6 nM and a Maximum_MFI of 3110 MFI.

For another assay, the target named is T3, human MSLN-R3 on HEK293T-hMSLN-R3 recombinant cells (human, UniProt Q13421 487-606).
T3 construct: the C-terminal limit is uncertain; also called human MSLN-R3 membrane protein
T3 sequence (Q13421 495-614): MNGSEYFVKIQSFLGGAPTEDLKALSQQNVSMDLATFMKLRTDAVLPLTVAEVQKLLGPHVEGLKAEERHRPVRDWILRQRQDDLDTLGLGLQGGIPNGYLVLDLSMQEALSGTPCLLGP
Nature of the assay: FACS, HEK293T-hMSLN-R3 cells.
As to B1, the EC50 is 6.91 nM and the Maximum_MFI worked out at 5600 MFI.

On to B2, for which the EC50 was 6.33 nM and the Maximum_MFI amounted to 5970 MFI.

As to B3, the EC50 was 5.66 nM and the Maximum_MFI is 5560 MFI.

With B4, the EC50 came out at 4.16 nM and the Maximum_MFI worked out at 4730 MFI.

Consider B5, for which the EC50 worked out at 5.57 nM and the Maximum_MFI is 4590 MFI.

On to B6, for which the half-maximal effective concentration (EC50) came out at 2.67 nM and the Maximum_MFI stood at 4760 MFI.

As to B7, the EC50 is 9.39 nM and the Maximum_MFI worked out at 4010 MFI.

With B8, the EC50 was determined as 4.7 nM and the Maximum_MFI stood at 4720 MFI.

As for B9, the concentration giving a half-maximal response (EC50) was determined as 8.3 nM and the Maximum_MFI is 4710 MFI.

The target of the next assay is T1, monkey MSLN on HEK293T-monkey MSLN …. As to the kind of experiment: FACS, HEK293T-monkey MSLN cells.
As for B1, the EC50 is 12.8 nM and the Maximum_MFI worked out at 26000 MFI.

Regarding B2, the EC50 came to 8.74 nM and the Maximum_MFI came to 24900 MFI.

For B3, the EC50 came to 7.73 nM and the Maximum_MFI worked out at 23300 MFI.

With B4, the concentration for a half-maximal effect (EC50) came to 5.86 nM and the Maximum_MFI turned out to be 17700 MFI.

In the case of B5, the EC50 was 5.22 nM and the Maximum_MFI stood at 14700 MFI.

Take B6: the 50% effective concentration (EC50) was 2.5 nM and the Maximum_MFI was 14500 MFI.

As for B7, the concentration giving a half-maximal response (EC50) amounted to 12.3 nM and the Maximum_MFI was 16100 MFI.

Turning to B8, the EC50 is 6.72 nM and the Maximum_MFI was 16000 MFI.

Regarding B9, the EC50 stood at 10.9 nM and the Maximum_MFI came out at 17600 MFI.

A further assay deals with T4, human MSLN-R3-his protein (human, UniProt Q13421 487-598).
T4 construct: it is put last here; also called human MSLN-R3 protein; hMSLN-R3-his; not shown: His tag
T4 sequence (Q13421 495-606): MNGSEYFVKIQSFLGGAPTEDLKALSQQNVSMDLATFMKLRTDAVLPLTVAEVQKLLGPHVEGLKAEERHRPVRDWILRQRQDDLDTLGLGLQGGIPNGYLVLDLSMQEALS
Nature of the assay: ELISA on coated antigen, antibody 2 nM. (ELISA stands for enzyme-linked immunosorbent assay.)
In turn, B10 registered an OD450 of 2.54 OD.

B11 displayed an OD450 of 2.75 OD.

The target of the next assay is T4, human MSLN-R3-his protein. As to the kind of experiment: ELISA on coated antigen, antibody 20 nM.
Turning to B10, the OD450 is 2.55 OD.

For B11, the OD450 is 2.52 OD.

The target of the next assay is T4, human MSLN-R3-his protein. As to the kind of experiment: ELISA on coated antigen, antibody 0.2 nM.
Take B10: the OD450 stood at 1.96 OD.

B11 registered an OD450 of 2.5 OD.

The target in a further assay is T4, human MSLN-R3-his protein. Nature of the assay: ELISA on coated antigen, antibody 200 nM.
For the molecule B10, the OD450 was determined as 2.56 OD.

In turn, B11 showed an OD450 of 2.92 OD.

The target of a further assay is T4, human MSLN-R3-his protein. Nature of the assay: ELISA on coated antigen, antibody 0.02 nM.
Molecule B10 gave an OD450 of 0.38 OD.

B11: the OD450 is 1.32 OD.

A further assay has as its target T4, human MSLN-R3-his protein. Nature of the assay: ELISA on coated antigen, antibody 0.002 nM.
On to B10, for which the OD450 stood at 0.11 OD.

B11 had an OD450 of 0.71 OD.

A further assay addresses T4, human MSLN-R3-his protein. Nature of the assay: ELISA on coated antigen, antibody 0.0002 nM.
Turning to B10, the OD450 is 0.06 OD.

Molecule B11 displayed an OD450 of 0.31 OD.

A further assay deals with T5, human MSLN-hFc recombinant protein (human, UniProt Q13421 296-580).
T5 construct: Captured by an anti-human IgG antibody on the chip; also called human MSLN protein; Acro MSN-H5253
T5 sequence (Q13421 other isoform, or with tags, fused parts or gaps): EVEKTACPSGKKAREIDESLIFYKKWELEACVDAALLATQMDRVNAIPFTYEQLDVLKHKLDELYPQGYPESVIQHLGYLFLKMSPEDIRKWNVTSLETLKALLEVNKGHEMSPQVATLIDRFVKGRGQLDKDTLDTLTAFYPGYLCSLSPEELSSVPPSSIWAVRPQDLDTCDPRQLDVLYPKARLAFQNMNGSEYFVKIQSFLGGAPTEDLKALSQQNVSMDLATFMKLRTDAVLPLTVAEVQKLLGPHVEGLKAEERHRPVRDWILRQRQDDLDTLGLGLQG
Nature of the assay: SPR (Biacore 8K), MSLN-hFc captured, antibody injected.
Usually Kd stands for the free concentration of one partner at which half of the binding sites on the other are occupied at equilibrium, for simple one-to-one binding. A word on the koff: it is the rate constant with which the complex falls apart. What is called kon is a measure of how fast the partners come together. With B2, the dissociation constant Kd came to 0.985 nM, the koff worked out at 3.39e-05 s⁻¹ and the kon came to 34400 M⁻¹ s⁻¹.

On to B3, for which the Kd stood at 0.734 nM, the koff was determined as 3.19e-05 s⁻¹ and the kon is 43500 M⁻¹ s⁻¹.

Consider B4, for which the dissociation constant (Kd) is 7.74 nM, the off-rate (koff) came to 0.000473 s⁻¹ and the on-rate constant (kon) stood at 61200 M⁻¹ s⁻¹.

Take B9: the Kd stood at 31.1 nM, the koff is 0.000482 s⁻¹ and the on-rate constant (kon) amounted to 15500 M⁻¹ s⁻¹.

The next assay deals with T4, human MSLN-R3-his protein. Nature of the assay: ELISA on coated antigen, no antibody (blank, column 'none').
Take B10: the OD450 is 0.07 OD.

B11: the OD450 is 0.08 OD.
